B1: monoclonal antibody NB117-2F4 (antibody, mouse IgG2b, kappa, V domains shown)
VH: EVQLQESGPSLVKPSQTLSLTCSVTGDSITSGFWSWIRKFPGNKLEFMGYIKYSGDTYFNPSLKSRISITRDTSKNQYYLQLNSVTPEDTATYYCSDMDYWGQGTSVTVSS
VL: DVVMTQTPRSLPVSLGDQASISCRSSQSLVHNNGNTYLHWYLQMPGQSPKLLIYKVSNRFSGVPDRFSGSGSGTDFTLKISRVEAEDLGVYFCSQITHVPWTFGGGTKLEIKR
notes: also called mAb
B2: selection peptide GIATKGLNGP (peptide)
peptide: H-GIATKGLNGP

Test [1] addresses T1, biotinylated synthetic peptide GIATKGLNGP-k(Biotin) (human, not fully specified (C-terminus); also: lowercase k not explained).
T1 construct: Captured on streptavidin-coated microplates; also called biotinylated peptide; coater peptide
T1 peptide: H-GIATKGLNGP
As to the kind of experiment: competitive ELISA, biotinylated peptide on streptavidin plate (FIG. 1 legend). As to the method:
(§1) A purified monoclonal antibody was first tested for peptide-binding specificity by three synthetic peptides, selection peptide ([…]; SEQ ID NO: 1), elongation of the selection peptide ([…]; SEQ ID NO: 3) and truncation of the selection peptide ([…]; SEQ ID NO: 4), and then used in a competitive immunoassay. After optimization with buffer, temperature, incubation time and concentrations for key reagents, the final protocol for detection of ⁴⁷⁹GIATKG (SEQ ID NO: 2) assay was developed as follows: a 96-well streptavidin pre-coated micro plate was coated with 1 ng/ml biotinylated peptide, […]-k(Biotin) (SEQ ID NO: 5) dissolved in 50 mM PBS-BTB buffer (phosphate-buffered saline with bovine serum albumin and Tween-20, pH7.4) for 30 min at 20° C. Then, the plate was washed 5 times by standard wash buffer (20 mM Tris, 50 mM NaCl, pH 7.2). 20 μL of the peptide standards, kit controls or samples were added to appropriate wells, followed by 100 μL of 23 ng/ml monoclonal antibody in 50 mM PBS-BTB buffer containing 5% Osteocalcin EIA Puf-Liq (Roche diagnostics, Germany), and incubated overnight (20±1 hr) at 4° C. After 5 times wash, 100 μL of goat anti-mouse secondary antibody (115-035-003, Jackson ImmunoResearch) was added and incubated for 1 hr at 20° C. […] The colorimetric reaction was stopped by adding 100 μL stopping solution (1% H₂SO₄) and measured at 450 nm with 650 nm as the reference.
For orientation: ELISA stands for enzyme-linked immunosorbent assay.

Test [2] addresses T2, truncation of the selection peptide IATKGLNGP (human).
T2 construct: Synthetic peptide: the selection peptide without its N-terminal glycine; also called truncated peptide; N-truncated shortened version
T2 peptide: IATKGLNGP
The experiment in a line: competitive ELISA, displacement of 2F4 from the coated biotinylated peptide. As to the method: (§2) A purified monoclonal antibody was first tested for peptide-binding specificity by three synthetic peptides, selection peptide ([…]; SEQ ID NO: 1), elongation of the selection peptide ([…]; SEQ ID NO: 3) and truncation of the selection peptide ([…]; SEQ ID NO: 4), and then used in a competitive immunoassay. After optimization with buffer, temperature, incubation time and concentrations for key reagents, the final protocol for detection of ⁴⁷⁹GIATKG (SEQ ID NO: 2) assay was developed as follows: a 96-well streptavidin pre-coated micro plate was coated with 1 ng/ml biotinylated peptide, […]-k(Biotin) (SEQ ID NO: 5) dissolved in 50 mM PBS-BTB buffer (phosphate-buffered saline with bovine serum albumin and Tween-20, pH7.4) for 30 min at 20° C. Then, the plate was washed 5 times by standard wash buffer (20 mM Tris, 50 mM NaCl, pH 7.2). 20 μL of the peptide standards, kit controls or samples were added to appropriate wells, followed by 100 μL of 23 ng/ml monoclonal antibody in 50 mM PBS-BTB buffer containing 5% Osteocalcin EIA Puf-Liq (Roche diagnostics, Germany), and incubated overnight (20±1 hr) at 4° C. After 5 times wash, 100 μL of goat anti-mouse secondary antibody (115-035-003, Jackson ImmunoResearch) was added and incubated for 1 hr at 20° C. After this step, the plate was washed for 5 times with wash buffer. Finally, 100 μL 3,3′,5,5′-tetramethylbenzidine (TMB) was added to each well and incubated for 15 min at 20° C. in the dark. The colorimetric reaction was stopped by adding 100 μL stopping solution (1% H₂SO₄) and measured at 450 nm with 650 nm as the reference.

The target in test [3] is T3, elongation of the selection peptide AGIATKGLNGP (human).
T3 construct: Synthetic peptide: the selection peptide with one alanine added at the N-terminus; also called elongated peptide; N-extended elongated version
T3 peptide: AGIATKGLNGP
The test is described as above. As to the method:
as §2

Test [4] has as its target B2. The test is described as above. As to the method:
as §2

In test [5] the target is B1. As to the kind of experiment: competitive ELISA (Col10neo): peptide standard competes with the coated …-k(Biotin) for 2F4. As to the method:
as §1, with “7.2).” for “7.2). 20 μL of the peptide standards, kit controls or samples were added to appropriate wells, followed by 100 μL of 23 ng/ml monoclonal antibody in 50 mM PBS-BTB buffer containing 5% Osteocalcin EIA Puf-Liq (Roche diagnostics, Germany), and incubated overnight (20±1 hr) at 4° C. After 5 times wash, 100 μL of goat anti-mouse secondary antibody (115-035-003, Jackson ImmunoResearch) was added and incubated for 1 hr at 20° C.”
The inter- and intra-plate variation were determined by 10 independent runs of quality control panel (three human sera and two peptide standard) in duplicate. The lower limit of detection (LLOD) was calculated as 3SD of the mean value of 21 zero standard. […] Percent recovery was calculated as the measured concentration divided by the expected concentration corrected for dilution.

No end group written: not given here.

For orientation: IC50 means the concentration that inhibits the measured activity by half. Read a high IC50 as weaker potency.

For B1, the binding result in test [1] is recorded as “binds”; in test [2] it was “no binding (tested: 1000 ng/mL)”; in test [3] it was “no binding (tested: 1000 ng/mL)”; in test [4], “binds”.

In turn, B2 came in with a concentration for half-maximal inhibition (IC50) in test [5] of 0.0419 µg/mL.

These data come from patent US20220146528A1 (NORDIC BIOSCIENCE A S, published 2022).
